This data set has as its system Escherichia coli TOP10. In words: shrunken log2 fold change of peptide-encoding DNA abundance (4.5 h post-induction vs induction); higher = less antimicrobial activity (less host growth inhibition). The note with it: time post-induction: 4.5 h; library: site-saturation at positions 5, 18, 19, 20.
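Further: peptides expressed intracellularly from a pBAD plasmid library in pooled LB shake-flask culture, induced with 0.3% L-arabinose, DNA abundance read by NGS, three biological replicates, DESeq2 with apeglm shrinkage.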

As for RRIRRRPPRLPRPRPRPNQNPRP, the “shrunken log2 fold change” value is 0.14.
The value for RRIRIRPPRLPRPRPRPQGPPRP was -0.0152; that for RRIRYRPPRLPRPRPRPKHDPRP was -0.648; that for RRIRRRPPRLPRPRPRPWGEPRP was 2.96.
Turning to RRIRYRPPRLPRPRPRPMTKPRP, the “shrunken log2 fold change” value was found to be 0.0153.
Under RRIRNRPPRLPRPRPRPWEEPRP stands -0.00133.
The value for RRIRHRPPRLPRPRPRPTNQPRP was -0.425; that for RRIRRRPPRLPRPRPRPHFIPRP was -0.0325; that for RRIRVRPPRLPRPRPRPHWYPRP was -0.463.
The value for RRIRYRPPRLPRPRPRPLLIPRP was -0.798; that for RRIRQRPPRLPRPRPRPMPFPRP was -0.0697; that for RRIRFRPPRLPRPRPRPQRKPRP was 0.089.
In the case of RRIRYRPPRLPRPRPRPHGEPRP, the “shrunken log2 fold change” value was found to be 0.0796.
With RRIRCRPPRLPRPRPRPCLWPRP, the “shrunken log2 fold change” value amounted to 0.238.
Turning to RRIRPRPPRLPRPRPRPNTFPRP, the “shrunken log2 fold change” value was -0.0232.
Under RRIRNRPPRLPRPRPRPNYDPRP stands -0.222; under RRIRRRPPRLPRPRPRPFQIPRP, -0.325.
The value for RRIRERPPRLPRPRPRPNCAPRP was 0.172.
As to RRIRVRPPRLPRPRPRPVNNPRP, the “shrunken log2 fold change” value is -0.39.
The value for RRIRNRPPRLPRPRPRPMRRPRP was -0.0657; that for RRIRYRPPRLPRPRPRPEWCPRP was -0.244.
The value for RRIRSRPPRLPRPRPRPDPRPRP was 0.215; that for RRIRHRPPRLPRPRPRPECIPRP was -0.00992; that for RRIRRRPPRLPRPRPRPNHYPRP was -0.314.
RRIRHRPPRLPRPRPRPWHKPRP: the “shrunken log2 fold change” value is -0.113.
For the sequence RRIRDRPPRLPRPRPRPFCNPRP, the “shrunken log2 fold change” value was -0.0411.
Consider RRIRYRPPRLPRPRPRPCSSPRP, for which the “shrunken log2 fold change” value was -0.941.
For the sequence RRIRCRPPRLPRPRPRPLFWPRP, the “shrunken log2 fold change” value came out at 0.153.
For the sequence RRIRLRPPRLPRPRPRPNSYPRP, the “shrunken log2 fold change” value is -0.3.
On to RRIRNRPPRLPRPRPRPPYVPRP, for which the “shrunken log2 fold change” value is -0.0374.
For RRIRLRPPRLPRPRPRPVPLPRP, the “shrunken log2 fold change” value is -0.174.
As to RRIRLRPPRLPRPRPRPLTIPRP, the “shrunken log2 fold change” value is -0.0053.
Under RRIRRRPPRLPRPRPRPLDMPRP stands -0.114; under RRIRGRPPRLPRPRPRPPWTPRP, 0.68.
Under RRIRLRPPRLPRPRPRPNLDPRP stands -0.18.
The value for RRIRYRPPRLPRPRPRPFWLPRP was -0.0817; that for RRIRRRPPRLPRPRPRPMRKPRP was 0.58; that for RRIRPRPPRLPRPRPRPHMTPRP was -0.47.
For the sequence RRIRRRPPRLPRPRPRPEEWPRP, the “shrunken log2 fold change” value was -0.00804.
The value for RRIRQRPPRLPRPRPRPSEVPRP was -0.022; that for RRIRCRPPRLPRPRPRPGGGPRP was 0.76.
Under RRIRSRPPRLPRPRPRPYHTPRP stands -0.652.
As for RRIRGRPPRLPRPRPRPLQQPRP, the “shrunken log2 fold change” value stood at 0.28.
The value for RRIRERPPRLPRPRPRPFNKPRP was -0.383; that for RRIRRRPPRLPRPRPRPKDCPRP was 0.132; that for RRIRMRPPRLPRPRPRPVYCPRP was 0.00982.
Regarding RRIRHRPPRLPRPRPRPHAVPRP, the “shrunken log2 fold change” value was -0.0488.
As to RRIRGRPPRLPRPRPRPYVFPRP, the “shrunken log2 fold change” value was -0.141.
In the case of RRIRYRPPRLPRPRPRPHVHPRP, the “shrunken log2 fold change” value was -0.00398.
Take RRIRERPPRLPRPRPRPLAQPRP: the “shrunken log2 fold change” value was found to be 0.21.
As to RRIRGRPPRLPRPRPRPGCHPRP, the “shrunken log2 fold change” value was 0.549.
With RRIRMRPPRLPRPRPRPCENPRP, the “shrunken log2 fold change” value worked out at 0.0192.
Consider RRIRSRPPRLPRPRPRPGTLPRP, for which the “shrunken log2 fold change” value is -0.571.
For RRIRWRPPRLPRPRPRPPMVPRP, the “shrunken log2 fold change” value worked out at 0.104.
Regarding RRIRKRPPRLPRPRPRPILWPRP, the “shrunken log2 fold change” value was found to be 0.149.
Regarding RRIRERPPRLPRPRPRPMFNPRP, the “shrunken log2 fold change” value was -0.607.
Under RRIRNRPPRLPRPRPRPTNHPRP stands -0.527; under RRIRWRPPRLPRPRPRPQLGPRP, 0.276; under RRIRNRPPRLPRPRPRPQGVPRP, 0.0991.
As for RRIRFRPPRLPRPRPRPRICPRP, the “shrunken log2 fold change” value amounted to 0.0102.
With RRIRYRPPRLPRPRPRPINNPRP, the “shrunken log2 fold change” value is -0.892.
As to RRIRERPPRLPRPRPRPTSGPRP, the “shrunken log2 fold change” value is 0.0416.

(Values after the supplement of paper PMC9112550, “Optimization of the antimicrobial peptide Bac7 by deep mutational scanning” (BMC Biology, 2022).)
